Data taken from article PMC9557730 (2022).

B1: N-terminal 3×-FLAG-tagged p52 (WT) [human] / XPB [human (endogenous in HEK293T)] (parent complex)
chain 1: MESTPSRGLNRVHLQCRNLQEFLGGLSPGVLDRLYGHPATCLAVFRELPSLAKNWVMRMLFLEQPLPQAAVALWVKKEFSKAQEESTGLLSGLRIWHTQLLPGGLQGLILNPIFRQNLRIALLGGGKAWSDDTSQLGPDKHARDVPSLDKYAEERWEVVLHFMVGSPSAAVSQDLAQLLSQAGLMKSTEPGEPPCITSAGFQFLLLDTPAQLWYFMLQYLQTAQSRGMDLVEILSFLFQLSFSTLGKDYSVEGMSDSLLNFLQHLREFGLVFQRKRKSRRYYPTRLAINLSSGVSGAGGTVHQPGFIVVETNYRLYAYTESELQIALIALFSEMLYRFPNMVVAQVTRESVQQAIASGITAQQIIHFLRTRAHPVMLKQTPVLPPTITDQIRLWELERDRLRFTEGVLYNQFLSQVDFELLLAHARELGVLVFENSAKRLMVVTPAGHSDVKRFWKRQKHSS
chain 2: MGKRDRADRDKKKSRKRHYEDEEDDEEDAPGNDPQEAVPSAAGKQVDESGTKVDEYGAKDYRLQMPLKDDHTSRPLWVAPDGHIFLEAFSPVYKYAQDFLVAIAEPVCRPTHVHEYKLTAYSLYAAVSVGLQTSDITEYLRKLSKTGVPDGIMQFIKLCTVSYGKVKLVLKHNRYFVESCHPDVIQHLLQDPVIRECRLRNSEGEATELITETFTSKSAISKTAESSGGPSTSRVTDPQGKSDIPMDLFDFYEQMDKDEEEEEETQTVSFEVKQEMIEELQKRCIHLEYPLLAEYDFRNDSVNPDINIDLKPTAVLRPYQEKSLRKMFGNGRARSGVIVLPCGAGKSLVGVTAACTVRKRCLVLGNSAVSVEQWKAQFKMWSTIDDSQICRFTSDAKDKPIGCSVAISTYSMLGHTTKRSWEAERVMEWLKTQEWGLMILDEVHTIPAKMFRRVLTIVQAHCKLGLTATLVREDDKIVDLNFLIGPKLYEANWMELQNNGYIAKVQCAEVWCPMSPEFYREYVAIKTKKRILLYTMNPNKFRACQFLIKFHERRNDKIIVFADNVFALKEYAIRLNKPYIYGPTSQGERMQILQNFKHNPKINTIFISKVGDTSFDLPEANVLIQISSHGGSRRQEAQRLGRVLRAKKGMVAEEYNAFFYSLVSQDTQEMAYSTKRQRFLVDQGYSFKVITKLAGMEEEDLAFSTKEEQQQLLQKVLAATDLDAEEEVVAGEFGSRSSQASRRFGTMSSMSGADDTVYMEYHSSRSKAPSKHVHPLFKRFRK
B2: N-terminal 3×-FLAG-tagged p52 (WT) [human] / p8 [human (endogenous in HEK293T)] (parent complex)
chain 1: B1 chain 1
chain 2: MVNVLKGVLIECDPAMKQFLLYLDESNALGKKFIIQDIDDTHVFVIAELVNVLQERVGELMDQNAFSLTQK
B3: N-terminal 3×-FLAG-tagged p52 (WT) [human] / p34 [human (endogenous in HEK293T)] (parent complex)
chain 1: B1 chain 1
chain 2: MVSDEDELNLLVIVVDANPIWWGKQALKESQFTLSKCIDAVMVLGNSHLFMNRSNKLAVIASHIQESRFLYPGKNGRLGDFFGDPGNPPEFNPSGSKDGKYELLTSANEVIVEEIKDLMTKSDIKGQHTETLLAGSLAKALCYIHRMNKEVKDNQEMKSRILVIKAAEDSALQYMNFMNVIFAAQKQNILIDACVLDSDSGLLQQACDITGGLYLKVPQMPSLLQYLLWVFLPDQDQRSQLILPPPVHVDYRAACFCHRNLIEIGYVCSVCLSIFCNFSPICTTCETAFKISLPPVLKAKKKKLKVSA
B4: C-terminal 3× FLAG-tagged WT Tfb2 [Saccharomyces cerevisiae] / Ssl2 [S. cerevisiae (endogenous in yeast)] (parent complex)
chain 1: MSDYSLKHSVTQYLEEIPQQVQNRLYTSPATCLAIYRILPPLAKFFIMAMVFNENEVPLLDLDKWVNSNGKLQFQNAIKSMKSLHLLIPNKSSGTLMINLNPTFKISLRNALTGGEVQNSFGVVVEENVVSLDLLDEYSANKWETILHFMVGTPLAKIPSEKVLNLLKHSKLMEEVNSTGEFKITNEGFQFLLQEINSQLWTLLLQYLKMIETSKMDLVDVLHFIFMLGALEVGKAYKIDALSETQRIMLQDMRDYGLVFQKHSNDSIFYPTKLALMLTSDTKTIRSASNAMDSVLRQNREEPSVNEDGANGKSTTDITTSDDLNKAGLKNQDIPDGSLIVETNFKIYSYSNSPLQIAVLSLFVHLKARFVNMVLGQITRESIRRALTNGITADQIIAYLETHAHPQMRRLAEEKLEKKLELDPNCKEPLQVLPPTVVDQIRLWQLELDRVITYEGSLYSDFETSQEYNLLSKYAQDIGVLLWKDDKKKKFFISKEGNSQVLDFAKRKLKKKQ
chain 2: MTDVEGYQPKSKGKIFPDMGESFFSSDEDSPATDAEIDENYDDNRETSEGRGERDTGAMVTGLKKPRKKTKSSRHTAADSSMNQMDAKDKALLQDTNSDIPADFVPDSVSGMFRSHDFSYLRLRPDHASRPLWISPSDGRIILESFSPLAEQAQDFLVTIAEPISRPSHIHEYKITAYSLYAAVSVGLETDDIISVLDRLSKVPVAESIINFIKGATISYGKVKLVIKHNRYFVETTQADILQMLLNDSVIGPLRIDSDHQVQPPEDVLQQQLQQTAGKPATNVNPNDVEAVFSAVIGGDNEREEEDDDIDAVHSFEIANESVEVVKKRCQEIDYPVLEEYDFRNDHRNPDLDIDLKPSTQIRPYQEKSLSKMFGNGRARSGIIVLPCGAGKTLVGITAACTIKKSVIVLCTSSVSVMQWRQQFLQWCTLQPENCAVFTSDNKEMFQTESGLVVSTYSMVANTRNRSHDSQKVMDFLTGREWGFIILDEVHVVPAAMFRRVVSTIAAHAKLGLTATLVREDDKIGDLNFLIGPKLYEANWMELSQKGHIANVQCAEVWCPMTAEFYQEYLRETARKRMLLYIMNPTKFQACQFLIQYHERRGDKIIVFSDNVYALQEYALKMGKPFIYGSTPQQERMNILQNFQYNDQINTIFLSKVGDTSIDLPEATCLIQISSHYGSRRQEAQRLGRILRAKRRNDEGFNAFFYSLVSKDTQEMYYSTKRQAFLVDQGYAFKVITHLHGMENIPNLAYASPRERRELLQEVLLKNEEAAGIEVGDDADNSVGRGSNGHKRFKSKAVRGEGSLSGLAGGEDMAYMEYSTNKNKELKEHHPLIRKMYYKNLKK

Variants of: B1
Test: FLAG-IP–Western; HEK293T nuclear extracts; n = 3, biological replicates; read off a plot

In order of rising response:
1. chain 1 E310F  ~0.01 Normalized Western Signal
2. chain 1 Y316A, chain 1 Y318A  ~0.02 Normalized Western Signal
3. chain 1 R337A, chain 1 F338A  ~0.03 Normalized Western Signal
4. chain 1 E310A, chain 1 R314A  ~0.13 Normalized Western Signal

Variants of: B1
Test: FLAG-IP LC–MS (iBAQ); HEK293T nuclear extracts; n = 3, biological replicates; read off a plot

In order of rising response:
1. chain 1 E310F  ~0.57 Normalized Log2 iBAQ
2. chain 1 Y316A, chain 1 Y318A  ~0.63 Normalized Log2 iBAQ
3. chain 1 R337A, chain 1 F338A  ~0.67 Normalized Log2 iBAQ
4. chain 1 E310A, chain 1 R314A  ~0.78 Normalized Log2 iBAQ

Variants of: B2
Test: as above

In order of rising response:
1. chain 1 Y316A, chain 1 Y318A  ~0.83 Normalized Log2 iBAQ
2. chain 1 E310A, chain 1 R314A  ~0.83 Normalized Log2 iBAQ
3. chain 1 R337A, chain 1 F338A  ~0.84 Normalized Log2 iBAQ
4. chain 1 E310F  ~0.86 Normalized Log2 iBAQ

Variants of: B3
Test: as above

In order of rising response:
1. chain 1 E310F  ~0.64 Normalized Log2 iBAQ
2. chain 1 Y316A, chain 1 Y318A  ~0.67 Normalized Log2 iBAQ
3. chain 1 E310A, chain 1 R314A  ~0.67 Normalized Log2 iBAQ
4. chain 1 R337A, chain 1 F338A  ~0.73 Normalized Log2 iBAQ

Variants of: B4
Test: FLAG IP and Western blot; whole-cell extracts; FLAG-tagged Tfb2 variants coexpressed with endogenous Tfb2; two biological replicates; read off a plot

In order of rising response:
1. chain 1 R369A, chain 1 F370A  ~0.07 Western Signal/Tfb2-FLAG
2. chain 1 F370A  ~0.085 Western Signal/Tfb2-FLAG
3. chain 1 E342F  ~0.085 Western Signal/Tfb2-FLAG
4. chain 1 E342R, chain 1 K346E  ~0.11 Western Signal/Tfb2-FLAG
5. chain 1 L339A, chain 1 I340A, chain 1 V341A  ~0.11 Western Signal/Tfb2-FLAG
6. chain 1 I347A, chain 1 Y348A, chain 1 Y350A  ~0.14 Western Signal/Tfb2-FLAG
7. chain 1 L360A, chain 1 L362A, chain 1 F363A  ~0.17 Western Signal/Tfb2-FLAG
8. chain 1 Y348A, chain 1 Y350A  ~0.19 Western Signal/Tfb2-FLAG
9. chain 1 G390A, chain 1 I391A, chain 1 T392A  ~0.2 Western Signal/Tfb2-FLAG
10. chain 1 I378A, chain 1 T379A, chain 1 R380A  ~0.21 Western Signal/Tfb2-FLAG
11. chain 1 I347A, chain 1 Y348A  ~0.23 Western Signal/Tfb2-FLAG
12. chain 1 Y399A, chain 1 L400A  ~0.28 Western Signal/Tfb2-FLAG
13. chain 1 I378A, chain 1 T379A  ~0.29 Western Signal/Tfb2-FLAG
14. chain 1 Q395A, chain 1 I396A, chain 1 I397A  ~0.35 Western Signal/Tfb2-FLAG
15. chain 1 I396A, chain 1 I397A  ~0.38 Western Signal/Tfb2-FLAG
16. chain 1 E447K  ~0.5 Western Signal/Tfb2-FLAG
17. chain 1 D439A, chain 1 E447A, chain 1 R450A  ~0.58 Western Signal/Tfb2-FLAG
